# In US20250122303A1, “TREATMENT AND PREVENTION OF CANCER USING HER3 ANTIGEN-BINDING MOLECULES” (Hummingbird Bioscience Pte. Ltd., priority 2021, published 2025):
# Tests used:
# [1] = test system: HCC-95 cell-line derived mouse model of squamous cell lung carcinoma; experiment: HCC-95 cell-line derived xenograft model; assay type: in vivo; conditions: HCC-95, IP biweekly 500 μg, 4 doses
# Protocol: (§1) Tumor volumes were measured 3 times a week using a digital caliper and calculated using the formula [L ×W2/2]. Study End point was considered to have been reaches once the tumors of the control arm measured >1.5 cm in length.
# The model was established by subcutaneous injection of 1×10^6 HCC-95 cells into the right flanks of female NCr nude mice (n=6 mice per treatment group).
# 10D1 was administered IP, biweekly at 500 μg per dose (for a total of 4 doses); a control treatment group received an equal volume of PBS.
# FaDu cells = experiment: Phosphoprotein Antibody Array; assay type: cell-based, human; conditions: 50 μg/ml 4 hrs, NRG 100 ng/ml
# Protocol: FaDu cells were seeded in wells of a 6 well plate with 10% serum at 37° C., 5% CO2. After 16 hrs, cells were starved by culture overnight in 1% FBS cell culture medium. On the following day cells were treated with 50 μg/ml anti-HER3 antibody 10D1 for 4 hrs, followed by 15 min stimulation with NRG (100 ng/ml). Proteins were then extracted, quantified using standard Bradford protein assay, and incubated overnight with pre-blocked Phosphoprotein Antibody Array membrane (Ray Biotech) at 4° C. The membrane was then washed with washing buffer and incubated with detection antibody cocktail for 2 hrs at room temperature, followed by washing and incubation with HRP-Conjugated anti-IgG. After 2 hrs the membrane was washed and probed using the kit detection buffer. Images were captured with Syngene Gbox imaging system, the intensity of each dot/phosphoprotein was measured and percent inhibition was calculated by comparison with intensity measured for cells treated in the same way in the absence of the antibody.
# [2] = test system: SNU16 cell-line derived mouse gastric carcinoma model; experiment: SNU16 cell-line derived xenograft model; assay type: in vivo; conditions: SNU16, IP biweekly 500 μg, 9 doses
# Protocol: as §1
# The model was established by subcutaneous injection of 1×10^6 SNU16 cells into the right flank (n=6 mice per treatment group).
# 10D1 was administered IP, biweekly at 500 μg per dose (for a total of 9 doses); a control treatment group received an equal volume of PBS.
# N87 cells = experiment: CCK-8 proliferation assay, N87; assay type: cell-based, human; conditions: 5 days
# Protocol: Briefly, N87 and FaDu cells were treated with serially diluted concentrations of anti-HER3 antibody 10D1, starting from 100 μg/ml with a 9-point half log dilution. Cell proliferation was measuring using the CCK-8 proliferation assay (Dojindo, Japan) after a period of 5 days, in accordance with the manufacturer's instructions. Briefly 1× CCK-8 solution was added to each well followed by incubation for 2 h at 37° C. The OD was then measured at 450 nm.
# HER3-mediated signalling = experiment: Phospho-western blot of HER3-mediated signalling in cancer cell lines; assay type: cell-based, human; conditions: N87 and FaDu cells, 50 μg/ml 4 hrs, NRG 100 ng/ml
# Protocol: Briefly, N87 and FaDu cells were seeded in wells of a 6 well plate with 10% serum at 37° C., 5% CO2. After 16 hrs, cells were starved by culture overnight in 1% FBS cell culture medium (to reduce signalling elicited by growth factors in the serum). On the following day cells were treated with 50 μg/ml anti-HER3 antibody 10D1 for 4 hrs, followed by 15 min stimulation with NRG (100 ng/ml). Proteins were then extracted, quantified using standard Bradford protein assay, fractionated by SDS-PAGE, and transferred to nitrocellulose membranes. The membranes were then blocked and immunoblotted with the following antibodies overnight at 4° C. anti-pHER3, anti-pAKT, pan anti-HER3, pan anti-AKT and anti-beta-actin. The blots were visualized via Bio-Rad Clarity Western ECL substrate, and bands were quantified using densiometric analysis; data were normalized to beta actin controls.
# N87, FaDu or OvCAR8 cells were seeded in wells in a 6 well plate with 10% serum overnight at 37° C. with 5% CO2.
# Before harvesting, cells were stimulated with 100 ng/ml of NRG1. Protein extracted from cell lines were quantified using standard Bradford protein assay. Protein samples (50 μg) were fractionated by SDS-PAGE and transferred to nitrocellulose membrane. […] The blots were quantified using densiometric analysis and data was normalised to beta actin. […]
molecule,measurement,setting,value
"10D1: anti-HER3 antibody clone, VH SEQ ID NO:24, VL SEQ ID NO:74; [1] of Example 2.2 (antibody, V domains shown) VH: DVQLQESGPDLVKPSQSLSLTCTVTGYSITSGYSWHWIRQFPGNKLEWMGSIHYSGGTNYNPSLKSRISITRDTSKNQFFLQLNSVTTEDTATYFCARMTTAPRYPFDYWGQGTTLTVSS VL: DIVMTQSQKFMSTSVGDRVSVTCKASQIVGSNVAWYQQKPGQSPKPLIYSASYRYSGVPDRFTASGSGTDFTLTITNVQSEDLAEYFCQQYSSHPLTFGAGTKLELK",inhibition of tumor growth,[1],~90%
same,intracellular signalling pathways affected,FaDu cells,inhibit P13K/AKT/mTOR and MAPK signalling
same,inhibition of tumor growth,[2],~68%
same,cell proliferation,N87 cells,dose-dependent inhibition of cell proliferation
same,HER3 phosphorylation and downstream signalling,HER3-mediated signalling,inhibit HER3 phosphorylation and downstream signalling
